Measurements as given in article PMC7710018, “Restoration of motor learning in a mouse model of Rett syndrome following long-term treatment with a novel small-molecule activator of TrkB” (Disease Models & Mechanisms, 2020).

Experiments:
3T3-TrkA cells = experiment: NIH-3T3 cell survival (ViaLight); assay type: cell-based, mouse; settings: serum-free medium, 72-96 h, PTX-BD4-3 1000 nM
Experimental: (§1) Fig. 2. PTX-BD4-3 promotes cell survival preferentially through TrkB. (A-D) Neurotrophin receptor-expressing NIH-3T3 cells were incubated in culture medium (CM) alone or in medium plus either the indicated neurotrophins (BDNF, NGF, NT-3) or PTX-BD4-3 or its parent compound LM22A-4 for 72-96 h, after which survival was measured using the ViaLight assay. […] Scale bar: 10 μm. (B) Survival dose-response curves for PTX-BD4-3 and LM22A-4 in 3T3-TrkB cells. ^§P≤0.001 compared to CM alone. (C) Representative images of 3T3-TrkA, 3T3-TrkC and 3T3-p75 cells grown in the presence of CM alone, CM+neurotrophin or CM+PTX-BD4-3. Scale bar: 10 μm. NGF, NT-3 and BDNF served as positive controls for 3T3-TrkA, 3T3-TrkC and 3T3-p75 cells, respectively. (D) PTX-BD4-3 (1000 nM) had no effect on survival of 3T3-TrkA, 3T3-TrkC or 3T3-p75 cells compared to medium alone. *P≤0.05, ***P≤0.001 compared to CM alone. For each determination in B and D, n=10-32 wells derived from four to five independent experiments. Statistical significance was determined by one-way ANOVA with Dunnett's post hoc multiple comparison test. (E,F) […] protein was extracted from human cementoblast-like cell (HCEM) cultures treated with either culture medium alone, BDNF, LM22A-4 or PTX-BD4-3, immunoprecipitated with anti-TrkB antibody and then probed sequentially on western blots with anti-Shc and anti-TrkB antibody. The ratio of Shc to TrkB in treated cultures was normalized and compared to control (CM alone) using Kruskal-Wallis ANOVA followed by Dunn's multiple comparisons test (*P≤0.05, ^§P≤0.001). n=13 independent experiments, and each protein sample was run on duplicate western blots and the normalized values averaged. RLUs, relative light units.
(§2) Mouse NIH-3T3 cells expressing TrkA (NIH-3T3-TrkA) were provided by Dr William Mobley (University of California at San Diego, San Diego, CA, USA), and NIH-3T3 cells expressing TrkB (NIH-3T3-TrkB) or TrkC (NIH-3T3-TrkC) were provided by Dr David Kaplan (University of Toronto, Toronto, ON, Canada). Cells were propagated in Dulbecco's modified Eagle medium (DMEM) supplemented with 10% fetal bovine serum (FBS; Invitrogen) and 200-400 µg/ml Geneticin. Cells were seeded into 24-well plates (30,000 cells/well) and cultured in medium consisting of 50% PBS and 50% DMEM without supplements. Following exposure to BDNF (20 ng/ml, 0.7 nM) or 10-1000 nM LM22A-4 or PTX-BD4-3 for 72-96 h, cells were suspended in 50 µl lysis buffer, transferred to white, opaque 96-well culture plates and survival was measured using the ViaLight Assay (Lonza Group, Rockland, ME, USA).

3T3-TrkC cells = experiment: NIH-3T3 cell survival (ViaLight); assay type: cell-based, mouse; settings: serum-free medium, 72-96 h, PTX-BD4-3 1000 nM
Experimental: as §1, §2

TrkB = experiment: Shc adaptor protein recruitment to TrkB in HCEMs (IP/western blot); assay type: cell-based, human; settings: 1 h, compounds 1000 nM, BDNF 0.7 nM
Excerpt: Fig. 2. […] Scale bar: 10 μm. […] Scale bar: 10 μm.

[1] = system: E16 mouse hippocampal neurons; experiment: Hippocampal neuron survival (ViaLight assay and Tuj1-positive cell counts); assay type: cell-based; settings: compounds 1000 nM, BDNF 20 ng/ml; vs control antibody
Excerpt: To further confirm that PTX-BD4-3 promotes biologically relevant activity through TrkB, we examined the effect of PTX-BD4-3 on survival of cultured hippocampal neurons, using two different methods (Fig. 3A-C). […] It would be expected that although there is a correlation between survival status and mitochondrial metabolic status, one could have some degree of variability in metabolic function for a given level of cell survival. […] Because the plateau effect of PTX-BD4-3 on survival was observed between 500 nM and 1000 nM, we chose 1000 nM as a standard concentration for subsequent mechanistic studies.
Fig. 3. […] (A) Fluorescence photomicrographs (original magnification, ×40) of Tuj1-immunostained E16 mouse hippocampal neuronal cultures treated with culture medium (CM) alone, BDNF, LM22A-4 or PTX-BD4-3 for 48 h. Scale bar: 10 μm. (B) Neuron survival dose-response curves for LM22A-4 and PTX-BD4-3 were generated using the ViaLight assay; data were normalized to survival achieved with 20 ng/ml (∼0.7 nM) BDNF and compared with wells receiving culture medium medium (CM) alone. n=10-32 wells per group derived from four to five independent experiments. (C) Survival analysis of hippocampal neurons treated with either 20 ng/ml BDNF, 500 nM or 1000 nM LM22A-4 or 500 nM or 1000 nM PTX-BD4-3 for 48 h. Tuj1-positive cells counts were normalized to the survival achieved with BDNF and compared with wells treated with […]. n=32-40 wells per group derived from six independent experiments. Statistical significance in B and C was determined by one-way ANOVA with Dunnett's post hoc multiple comparison tests. *P≤0.05, ^§P≤0.001 compared to control (CM). (D) Survival of hippocampal neurons treated with CM, 20ng/ml BDNF (B), 1000 nM LM22A-4 or 1000 nM PTX-BD4-3 with or without anti-TrkB antibody (Bab) or non-immune serum (non). n=37-42 wells per group derived from five independent experiments. *P≤0.05, **P≤0.01, ***P≤0.001 (non vs Bab), Mann-Whitney test; *P≤0.05, ^ψP≤0.01, ^§P≤0.001 (compared to CM), one-way ANOVA with Dunnett's post hoc multiple comparison test.
Hippocampal neuron cultures were prepared from E16 CF1 mouse fetuses as described previously ([Yang et al., 2006]). Under the low-density conditions used here, neuronal survival is dependent, in part, on addition of exogenous neurotrophins ([Yang et al., 2008]; [Walter et al., 2011]). LM22A-4 and PTX-BD4-3 were dissolved in water at a stock concentration of 10 mM prior to dilution (1:10,000) in culture medium. Cell survival following a 48-h exposure to BDNF, LM22A-4 or PTX-BD4-3 was quantified by either counting β-tubulin III-positive cell bodies ([Massa et al., 2006]; [Walter et al., 2011]) or by the ViaLight Assay described above.

3T3-p75 cells = experiment: NIH-3T3 cell survival (ViaLight); assay type: cell-based, mouse; settings: serum-free medium, 72-96 h, PTX-BD4-3 1000 nM
Experimental: as §1, §2

3T3-TrkB cells = experiment: NIH-3T3 cell survival (ViaLight); assay type: cell-based, mouse; settings: serum-free medium, 72-96 h, ViaLight; compounds 10-1000 nM dose-response, BDNF 20 ng/ml
Experimental: as §1, §2

[2] = system: 3T3 parent line, which does not express Trk receptors; experiment: NIH-3T3 cell survival; assay type: cell-based, mouse; settings: serum-free medium

Molecule: NGF: neurotrophin, cognate ligand and positive control for 3T3-TrkA cells
- survival of 3T3-TrkA cells (3T3-TrkA cells): supported survival

B1: NT-3: neurotrophin, cognate ligand and positive control for 3T3-TrkC cells (protein, UniProt P20783 139-257, looked up)
Neurotrophin-3: YAEHKSHRGEYSVCDSESLWVTDKSSAIDIRGHQVTVLGEIKTGNSPVKQYFYETRCKEARPVKNGCRGIDDKHWNSQCKTSQTYVRALTSENNKLVGWRWIRIDTSCVCALSRKIGRT
- survival of 3T3-TrkC cells (3T3-TrkC cells): supported survival

B2: BDNF: Recombinant brain-derived neurotrophic factor, cognate ligand of TrkB; positive control (protein, UniProt P23560 19-247, looked up)
Neurotrophic factor BDNF …: APMKEANIRGQGGLAYPGVRTHGTLESVNGPKAGSRGLTSLADTFEHVIEELLDEDQKVRPNEENNKDADLYTSRVMLSSQVPLEPPLLFLLEEYKNYLDAANMSMRVRRHSDPARRGELSVCDSISEWVTAADKKTAVDMSGGTVTVLEKVPVSKGQLKQYFYETKCNPMGYTKEGCRGIDKRHWNSQCRTTQSYVRALTMDSKKRIGWRFIRIDTSCVCTLTIKRGR
- Shc recruitment to TrkB (ratio of Shc to TrkB) (TrkB): promoted Shc recruitment to TrkB
- neurotrophic activity in the presence of function-blocking anti-TrkB^ECD antibody [1]: reduction
- survival of 3T3-p75 cells (3T3-p75 cells): respond
- survival of 3T3-TrkB cells (3T3-TrkB cells): supported survival
- survival of the 3T3 parent line [2]: did not support survival
